Target: 70S ribosome (vacant) (E. coli MRE600)

Row | KM of the 70S ribosome-stimulated multiple turnover GTPase activity (0.01 uM protein, 100 uM GTP, 0 to 8 uM 70S) | Substance
1 | 36 µM | EF4 ΔA494 (from UniProt P60785 1-494) (domain or fragment)
2 | 7 µM | EF4 ΔG555 (from UniProt P60785 1-555) (domain or fragment)
3 | 10 µM | EF4 ΔP520 (from UniProt P60785 1-520) (domain or fragment)
4 | 0.32 µM | Elongation Factor 4 (EF4/LepA), wild type (from UniProt P60785 1-599) (enzyme)
